In the supplement of paper PMC12042874:
± gives the uncertainty stated by the source.

Experiment: amyloid nucleation score (Sup35N fusion, yeast selection) (log enrichment); library NNK1; higher = more nucleation; inactive = no reads after selection
Procedure, shortened: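 Using DiMSum, nucleation scores were taken as the log enrichment of output over input reads, centred on the mode score of non-aggregating sequences. The input and output reads came from Illumina sequencing of plasmid inserts, with sequences under 100 input reads excluded. The yeast were psi-negative, expressed Sup35N fused to peptides of 20 random codons, were induced with 100 μM copper sulfate for 24 hours, and were grown 7 days at 30°C on medium lacking adenine and uracil.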

In order of falling amyloid nucleation score:
1. CISLFFVKCGRQAAHPQSRR  8.295 ± 0.062
2. KWIGIYINFDGYSVGS  7.598 ± 0.044
3. QNFWALGPIRRIYFVNVITN  7.315 ± 0.06
4. VNVIWAFYNN  5.7 ± 0.072
5. SVKNYLCLMTTPFVFVLEM  5.417 ± 0.049
6. LYSDPKVCHN  4.74 ± 0.065
7. VGMSSDCAGSLRRWRLWARL  4.55 ± 0.1
8. SIANNKRTKTVGLMLSCRSS  3.79 ± 0.14
9. DNRFERAVWVPHL  3.78 ± 0.12
10. NSSCIIPMLWWGHNHHWC  3.43 ± 0.12
11. YLCPFIYMAHSGSSDVCLIV  3.38 ± 0.11
12. RACVNSHQRMGGDGSLSMVL  2.48 ± 0.15
13. CAYVVVLLCSVLVDAGYVCR  1.94 ± 0.17
14. NACFRYKAKMDRMSTRGANS  1.88 ± 0.39
15. LAFTSLSNLYEDMCYQDWMV  1.82 ± 0.36
16. TSKDEFKFEYRNEKVNQ  1.75 ± 0.21
17. KHPEM  1.43 ± 0.38
18. TTCLTQNLDQGSLLYKVLPR  1.43 ± 0.18
19. CLQCKCYNNCVQLRVTVGCM  1.37 ± 0.52
20. KGISVTCEGK  1.24 ± 0.79
21. CRNSTVGITLIGWTSHFFNI  1.2 ± 0.76
22. FRSTPWNPMSTELVIFSPSV  1.16 ± 0.43
23. WYAFERFDFHLCVDVVQLTR  1.11 ± 0.94
24. YSYMTYRALFVVTSCLSRWG  1.11 ± 0.66
25. TVWYITTLAGEFAA  1.09 ± 0.53
26. RMDFIHISTAIFSKEVDSRR  1.04 ± 0.47
27. WQHFLFCKKKRVESCNVSTN  1.02 ± 0.76
28. SSRLKL  1 ± 0.25
29. IFVYCEFNKNRIPALASWVG  0.93 ± 0.43
30. LKGHLHDSILQCRHKALFF  0.922 ± 0.75
31. RRGSCLRFKV  0.859 ± 0.97
32. DDLQCITLRFTRDASRGVSL  0.843 ± 0.84
33. DKWLPIFTGGQLLSNLIFFC  0.832 ± 0.18
34. VGVSAVSTNSSVSKIFGTSW  0.746 ± 0.85
35. GHVVLFLLYDLSFYSNIFCA  0.712 ± 0.19
36. RYGRYSCSIIEGLCLMSSKW  0.676 ± 0.95
37. TVGMRYFVWVKGSKTKREER  0.674 ± 1.2
38. INDYMLYGVLAYILGHGTVQ  0.622 ± 0.49
39. ERYVLAPYQQTRRGNLQFRY  0.615 ± 0.63
40. RYMVGSENEIRL  0.583 ± 0.29
41. CRVMEKIEVCYIRYFFSWLD  0.574 ± 0.39
42. FFVGEDRACSRYSLTTTITG  0.554 ± 0.64
43. RKFAFKSIWSWYRI  0.533 ± 0.54
44. VLMQVSTLAAWDSKRDMTSC  0.528 ± 0.35
45. AYFMGHCLKGPRVTLVGCKT  0.525 ± 0.65
46. LGQHRKPSYKHSAKHKLFVD  0.519 ± 0.36
47. LYTHNSELNIKGSKVVHIEW  0.489 ± 0.4
48. DIRDYGLWWDKWAEGC  0.459 ± 0.3
49. KFSSKFTSG  0.436 ± 0.37
50. KKSYCYPFPFFSYV  0.423 ± 0.65
51. IKDNITGKSSYGM  0.418 ± 0.32
52. ACYGLIDQLFQLANPYRTAM  0.412 ± 0.32
53. PALWWSMYSIQCPEEIGGAV  0.405 ± 0.55
54. LCFVRMRYLFESDCPRHRKH  0.384 ± 0.65
55. SSSFRHAMRPSSISQRISPC  0.354 ± 0.54
56. YKLFGFFGRHPVNWYV  0.344 ± 0.51
57. AVCVPVSKDGPVKGKFINKY  0.329 ± 0.41
58. VTLKVFCIVEV  0.314 ± 0.44
59. TKDGIT  0.305 ± 0.97
60. CCADPMHYTFHSSNLVFPLM  0.294 ± 0.37
61. SQMAVYRPHLLVSSFMFTRS  0.274 ± 0.57
62. GCVVI  0.258 ± 0.26
63. KSGLRTLFSGVGHCWDALVY  0.198 ± 0.45
64. YFQQEVQFEWGCVWREWCDC  0.197 ± 0.52
65. DGQVSAVESMLRRWDSPVKG  0.18 ± 1
66. MFSTLH  0.178 ± 0.36
67. VESLDKIPMR  0.173 ± 0.73
68. YKNTCQLYPRVFTPWWYERM  0.173 ± 0.67
69. YAGVRLWRRVWRAKTACSVA  0.169 ± 0.56
70. DLPLDS  0.16 ± 0.72
71. MDVPFLRKN  0.154 ± 0.66
72. VVSLGNSSDYCHWKLILPTV  0.151 ± 0.4
73. FYVSLRWV  0.105 ± 0.45
74. NMSCCSTPYNPWTSIVPNVM  0.103 ± 0.39
75. WTVLGYFRALQASLRASAGM  0.099 ± 0.71
76. SNTRFSCRSPWVCTFFVREV  0.085 ± 0.52
77. SSTLLRMIEVRNGWEKGVWE  0.083 ± 0.2
78. YTDFRQSLLTVT  0.07 ± 0.43
79. KSWWNDVFVYVYQILEFHCR  0.032 ± 1.2
80. RSVMVMLPS  0.022 ± 0.37
81. STCHRSSSTCWKGYVRGLVV  0.004 ± 0.18
82. DALYLFWVMGRMVRDRV  0 ± 0.63
83. CWVHQNNCADVGATGEQSHR  -0.029 ± 0.51
84. CQRAFI  -0.041 ± 0.77
85. PYKGIVMFVSGPP  -0.068 ± 0.54
86. WVYHRQKSCAIFRAEIM  -0.088 ± 0.48
87. LYNPFHIRESMRSRPLVRWV  -0.1 ± 0.32
88. RSGVVIVVLSVYGSSQRARG  -0.108 ± 0.4
89. MRSIH  -0.11 ± 0.74
90. LAMRAMIRNVLFTKSQLHDR  -0.154 ± 0.38
91. AKLWQY  -0.185 ± 1.1
92. NSPPSDHSLKV  -0.195 ± 1.4
93. MGVDYARSVW  -0.202 ± 0.76
94. QGLGALMVRSFSFYLFVW  -0.241 ± 1.4
95. WVFEPMEWFDYKFSYHF  -0.255 ± 0.42
96. NYFEKR  -0.261 ± 0.47
97. VQEFYDLKEYWS  -0.265 ± 0.35
98. LCISARDLNNFGRNHMHFLL  -0.296 ± 0.34
99. VRMSFRLVEPY  -0.301 ± 0.81
100. GYVDPFRLYQGLMIFDYVGS  -0.332 ± 0.44
101. LICLGRPTSNTELGMNDINF  -0.349 ± 0.84
102. RERSYRSGDYRCYSIMWSAL  -0.382 ± 0.23
103. KTSCQSFVGR  -0.403 ± 0.54
104. TKLVLWLVA  -0.429 ± 0.71
105. HGLKWGFQLTNLSMLVTSCM  -0.475 ± 1.1
106. SFRYVGCWYMARWFS  -0.497 ± 0.3
107. LDTVYNVSMKKIKVTSIGQC  -0.537 ± 0.47
108. MVVQRLF  -0.54 ± 0.78
109. TYPMATIIVALG  -0.681 ± 0.38
110. WNDYAHILLKKRGGRYNLAG  -0.907 ± 0.74
111. SFRYFKLSCYFFFLVFAVFF  -1.02 ± 2.4
112. LCAREFVDCEAILVRLWFVY  -1.18 ± 1.1
113. YERGNFCWTIILRFLEF  -1.22 ± 0.78
114. DILVYRTLSPCVLSCSYFSG  -1.25 ± 0.77
115. YCQQT  -1.28 ± 0.64
116. YLRRHQRNLPEQCCEAGINV  -1.37 ± 1.5
117. KRLRTKFYVVLYFSYMSSTL  -1.52 ± 1.5
118. WNQADGIS  -1.66 ± 2.4
119. HTVKAK  -2.11 ± 1.1

With SSCVIRKCKHERQRWMS the amyloid nucleation score was “inactive”.
For WFNRSICSPNSHNDSSRFNQ, the amyloid nucleation score was “inactive”.
In the case of YASVVGYLPGCTNINAMKNR, the amyloid nucleation score is reported as “inactive”.
In the case of RDHCARYHARDGTEPYSGHR, the amyloid nucleation score is reported as “inactive”.
In the case of LILKISMMGK, the amyloid nucleation score is reported as “inactive”.
With CVSGVDLYRGSLGACGW the amyloid nucleation score was “inactive”.
In the case of QKDSTPISGWFSFYMSVPFK, the amyloid nucleation score is reported as “inactive”.
With SIRSVLFVSTVDDTPPYQGF the amyloid nucleation score was “inactive”.
With SLMRPCKCNAYCMIELITLY the amyloid nucleation score was “inactive”.
